Data: US20260207704A1, “STAPLED PEPTIDES AND METHODS THEREOF” (priority 2022, published 2026)
*1 amine or outer side, *2 acyl side, *3 side chain or, on linkers, in order; H or OH if unused. Bridges are numbered along the chain shown (N, C = ends). Primed or numbered codes have the meaning given here. [ ]: non-standard residue; d: D form. B5(4) = 2-amino-2-(pent-4-en-1-yl)hept-6-enoic acid, stapled through each of its two olefin groups with other olefin-containing amino acid residues, O=C(C(CCCC=[*:3])(CCCC=[*:4])N[*:1])[*:2]; PyrS2″ = (S)-3-amino-1-((pent-4-en-1-yloxy)carbonyl)pyrrolidine-3-carboxylic acid (olefin stapling residue), C=CCCCOC(=O)N1CC[C@@](N[*:1])(C(=O)[*:2])C1; PyrS2(3) = (S)-3-amino-1-((pent-4-en-1-yloxy)carbonyl)pyrrolidine-3-carboxylic acid, olefin residue, C=CCCCOC(=O)N1CC[C@@](N[*:1])(C(=O)[*:2])C1; PyrS2(5) = (S)-3-amino-1-((pent-4-en-1-yloxy)carbonyl)pyrrolidine-3-carboxylic acid, C=CCCCOC(=O)N1CC[C@@](N[*:1])(C(=O)[*:2])C1; B5″ = 2-amino-2-(pent-4-en-1-yl)hept-6-enoic acid (bis-olefin stapling residue), C=CCCCC(CCCC=C)(N[*:1])C(=O)[*:2]; B5(3) = 2-amino-2-(pent-4-en-1-yl)hept-6-enoic acid, two olefin arms, C=CCCCC(CCCC=C)(N[*:1])C(=O)[*:2]; 2F3MeF(3) = aromatic amino acid residue, Cc1cccc(C[C@H](N[*:1])C(=O)[*:2])c1F; 2F3MeF″ = aromatic residue, Cc1cccc(C[C@H](N[*:1])C(=O)[*:2])c1F; Phe(3-COOH) = N[C@@H](Cc1cccc(C(=O)O)c1)C(=O)O; 2F3MeF = Cc1cccc(C[C@H](N[*:1])C(=O)[*:2])c1F; Bta = N[C@@H](Cc1csc2ccccc12)C(=O)O; αAllylPro = C=CC[C@@]1(C(=O)O)CCCN1; BztA = aromatic amino acid residue; tBuAla = CC(C)(C)C[C@H](N)C(=O)O; 3Thi = N[C@@H](Cc1ccsc1)C(=O)O; Cha = N[C@@H](CC1CCCCC1)C(=O)O; Thr(ol) = C[C@@H](O)[C@H](N)CO; PyrS2(4) = not defined here; Nle = CCCC[C@H](N)C(=O)O; TfeGA = not defined here; AsnR = not defined here; GlnR = not defined here; PL3 = not defined here; B5 = not defined here; Aib = CC(C)(N)C(=O)O

B1: I-57 (peptide)
peptide: Ac-[αAllylPro]D[tBuAla][B5(3)]D[Phe(3-COOH)]AAFK[PyrS2(3)][2F3MeF″][Bta][GlnR]A-NH2
modifications: bridge 10-14; not fully specified (bridges); printed as Ac-PL3-Asp-Npg-B5-Asp-3COOHF-Ala-Ala-Phe-Lys*3-PyrS2-2F3MeF-BztA-GlnR*3-Ala-NH2; reading uncertain
B2: I-61 (peptide)
peptide: Ac-[αAllylPro]D[tBuAla][B5(3)]D[Phe(3-COOH)]QAFK[PyrS2(3)][2F3MeF″][Bta][AsnR]A-NH2
modifications: bridge 10-14; not fully specified (bridges); printed as Ac-PL3-Asp-Npg-B5-Asp-3COOHF-Gln-Ala-Phe-Lys*3-PyrS2-2F3MeF-BztA-AsnR*3-Ala-NH2; reading uncertain
B3: I-120 (peptide)
peptide: Ac-[αAllylPro]D[tBuAla][B5″]D[TfeGA][Aib]AFK[PyrS2″][2F3MeF][Bta][GlnR]A-NH2
modifications: bridge 10-14; not fully specified (bridges); reading uncertain; also: Lys*3 and GlnR*3 marked *3
B4: I-101 (peptide)
peptide: Ac-[PL3]D[tBuAla][B5]D[Phe(3-COOH)][Cha]AFK[PyrS2(4)][2F3MeF][Bta][GlnR]A-NH2
modifications: staple 1-4; bridge 10-14; not fully specified (residue 10); printed as Ac-PL3-Asp-Npg-B5-Asp-3COOHF-Cha-Ala-Phe-Lys*3-PyrS2-2F3MeF-BztA-GlnR*3-Ala-NH2; reading uncertain; also: PyrS2 tied into a staple, partner not placed
B5: I-71 (peptide)
peptide: Ac-[αAllylPro]D[tBuAla][B5(3)]D[Phe(3-COOH)][Nle]AFK[PyrS2(3)][2F3MeF″][Bta][GlnR]A-NH2
modifications: bridge 10-14; not fully specified (bridges); printed as Ac-PL3-Asp-Npg-B5-Asp-3COOHF-nLeu-Ala-Phe-Lys*3-PyrS2-2F3MeF-BztA-GlnR*3-Ala-NH2; reading uncertain
B6: I-106 (peptide)
peptide: Ac-[PL3]D[Cha][B5]D[Phe(3-COOH)]AAFK[PyrS2(4)][2F3MeF][Bta][GlnR]L-NH2
modifications: staple 1-4; bridge 10-14; not fully specified (residue 10); printed as Ac-PL3-Asp-Cha-B5-Asp-3COOHF-Ala-Ala-Phe-Lys*3-PyrS2-2F3MeF-BztA-GlnR*3-Leu-NH2; reading uncertain; also: PyrS2 tied into a staple, partner not placed
B7: I-64 (peptide)
peptide: Ac-[αAllylPro]D[tBuAla][B5(3)]D[Phe(3-COOH)]AAFK[PyrS2(3)][3Thi][Bta][GlnR]-Prool
modifications: bridge 10-14; not fully specified (bridges); printed as Ac-PL3-Asp-Npg-B5-Asp-3COOHF-Ala-Ala-Phe-Lys*3-PyrS2-3Thi-BztA-GlnR*3-Prool; reading uncertain
B8: I-62 (peptide)
peptide: Ac-[αAllylPro]D[tBuAla][B5(3)]D[Phe(3-COOH)]AAFK[PyrS2(3)][3Thi][Bta][GlnR][Thr(ol)]
modifications: bridge 10-14; not fully specified (bridges); printed as Ac-PL3-Asp-Npg-B5-Asp-3COOHF-Ala-Ala-Phe-Lys*3-PyrS2-3Thi-BztA-GlnR*3-Throl; reading uncertain
B9: I-60 (peptide)
peptide: Ac-[αAllylPro]D[tBuAla][B5(3)]D[Phe(3-COOH)]QAFK[PyrS2(3)][2F3MeF″][Bta][GlnR]A-NH2
modifications: bridge 10-14; not fully specified (bridges); printed as Ac-PL3-Asp-Npg-B5-Asp-3COOHF-Gln-Ala-Phe-Lys*3-PyrS2-2F3MeF-BztA-GlnR*3-Ala-NH2; reading uncertain
B10: I-73 (peptide)
peptide: XDXXDXTAFKXXXQA
modifications: not fully specified; Ac-PL3-Asp-Npg-B5-Asp-3COOHF-Thr-Ala-Phe-Lys*3-PyrS2-2F3MeF-BztA-GlnR*3-Ala-NH2
B11: I-63 (peptide)
peptide: Ac-[αAllylPro]D[tBuAla][B5(3)]D[Phe(3-COOH)]AAFK[PyrS2(3)][3Thi][Bta][GlnR][Thr(ol)]
modifications: bridge 10-14; not fully specified (bridges); printed as Ac-PL3-Asp-Npg-B5-Asp-3COOHF-Ala-Ala-Phe-Lys*3-PyrS2-3Thi-BztA-GlnR*3-Throl; reading uncertain
B12: I-72 (peptide)
peptide: Ac-[αAllylPro]D[tBuAla][B5(3)]D[Phe(3-COOH)]TAFK[PyrS2(3)][3Thi][Bta][GlnR]A-NH2
modifications: bridge 10-14; not fully specified (bridges); printed as Ac-PL3-Asp-Npg-B5-Asp-3COOHF-Thr-Ala-Phe-Lys*3-PyrS2-3Thi-BztA-GlnR*3-Ala-NH2; reading uncertain
B13: I-104 (peptide)
peptide: Ac-[PL3]D[tBuAla][B5]D[Phe(3-COOH)]AAFK[PyrS2(4)][2F3MeF][Bta][GlnR]L-NH2
modifications: staple 1-4; bridge 10-14; not fully specified (residue 10); printed as Ac-PL3-Asp-Npg-B5-Asp-3COOHF-Ala-Ala-Phe-Lys*3-PyrS2-2F3MeF-BztA-GlnR*3-Leu-NH2; reading uncertain; also: PyrS2 tied into a staple, partner not placed
B14: I-68 (peptide)
peptide: Ac-[αAllylPro]D[tBuAla][B5(3)]D[Phe(3-COOH)][Aib]AFK[PyrS2(3)][2F3MeF″][Bta][GlnR]A-NH2
modifications: bridge 10-14; not fully specified (bridges); printed as Ac-PL3-Asp-Npg-B5-Asp-3COOHF-Aib-Ala-Phe-Lys*3-PyrS2-2F3MeF-BztA-GlnR*3-Ala-NH2; reading uncertain
B15: I-97 (peptide)
peptide: Ac-[PL3]D[Cha][B5]D[Phe(3-COOH)]AAFK[PyrS2″][2F3MeF(3)][BztA][GlnR]A-NH2
modifications: staple 1-4 (inferred); bridge 10-14; not fully specified (residue 10, bridges); printed as Ac-PL3-Asp-Cha-B5-Asp-3COOHF-Ala-Ala-Phe-Lys*3-PyrS2-2F3MeF-BztA-GlnR*3-Ala-NH2; reading uncertain; also: Lys10 and GlnR14 marked *3
B16: I-121 (peptide)
peptide: Ac-[αAllylPro]D[tBuAla][B5(4)]D[TfeGA][Aib]AFK[PyrS2(5)][2F3MeF][Bta][GlnR]A-NH2
modifications: bridge 10-14; not fully specified (bridges); reading uncertain; also: Lys*3 and GlnR*3 marked *3
B17: I-1 (peptide)
peptide: Ac-[PL3]DL[B5]DDAAFK[PyrS2(4)][3Thi][Bta][GlnR]-NH2
modifications: staple 1-4; bridge 10-14; not fully specified (residue 10); printed as Ac-PL3-Asp-Leu-B5-Asp-Asp-Ala-Ala-Phe-dLys*3-PyrS2-3Thi-BztA-GlnR*3-NH2; reading uncertain; also: PyrS2 tied into a staple, partner not placed

What was measured:
beta-catenin (human) [1] = assay: fluorescence polarization
beta-catenin (human), sequence (B6V8E6 146-665 limits assumed): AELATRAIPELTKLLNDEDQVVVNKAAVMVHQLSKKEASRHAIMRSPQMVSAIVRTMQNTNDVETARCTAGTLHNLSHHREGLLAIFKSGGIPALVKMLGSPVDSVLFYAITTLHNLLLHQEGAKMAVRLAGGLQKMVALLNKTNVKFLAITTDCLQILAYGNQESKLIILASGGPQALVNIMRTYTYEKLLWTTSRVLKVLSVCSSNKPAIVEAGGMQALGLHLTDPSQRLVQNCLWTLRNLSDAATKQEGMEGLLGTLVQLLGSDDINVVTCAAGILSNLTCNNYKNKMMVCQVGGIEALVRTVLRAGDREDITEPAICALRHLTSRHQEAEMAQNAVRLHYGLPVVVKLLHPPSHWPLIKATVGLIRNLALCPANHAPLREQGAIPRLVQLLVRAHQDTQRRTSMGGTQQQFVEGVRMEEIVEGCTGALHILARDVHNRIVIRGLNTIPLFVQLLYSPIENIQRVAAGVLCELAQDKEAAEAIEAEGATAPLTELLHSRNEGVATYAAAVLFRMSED

beta-catenin (human) [2] = assay: cell-based or functional assay

Binder	IC50 (beta-catenin (human) [1])	NanoBRET Abs IC50 (bin >1.5 uM) (beta-catenin (human) [2])	NanoBRET Abs IC50 (beta-catenin (human) [2])	NanoBRET Abs IC50 (bin >3.0 uM) (beta-catenin (human) [2])
B1	< 50 nM	< 3000 nM	–	–
B2	< 50 nM	–	> 10000 nM	–
B3	< 50 nM	< 3000 nM	–	–
B4	< 50 nM	< 3000 nM	–	–
B5	< 50 nM	< 3000 nM	–	–
B6	< 50 nM	< 3000 nM	–	–
B7	< 50 nM	< 3000 nM	–	–
B8	< 50 nM	–	–	< 10000 nM
B9	< 50 nM	–	–	< 10000 nM
B10	< 50 nM	< 3000 nM	–	–
B11	< 50 nM	–	–	< 10000 nM
B12	< 50 nM	< 3000 nM	–	–
B13	< 50 nM	< 3000 nM	–	–
B14	< 50 nM	< 3000 nM	–	–
B15	< 50 nM	< 3000 nM	–	–
B16	< 50 nM	< 3000 nM	–	–
B17	< 50 nM	–	> 10000 nM	–
